The values below come from patent US20100055739.

For the data set, the system named is T1, Bli1904II restriction endonuclease (Bacillus licheniformis).
T1 sequence: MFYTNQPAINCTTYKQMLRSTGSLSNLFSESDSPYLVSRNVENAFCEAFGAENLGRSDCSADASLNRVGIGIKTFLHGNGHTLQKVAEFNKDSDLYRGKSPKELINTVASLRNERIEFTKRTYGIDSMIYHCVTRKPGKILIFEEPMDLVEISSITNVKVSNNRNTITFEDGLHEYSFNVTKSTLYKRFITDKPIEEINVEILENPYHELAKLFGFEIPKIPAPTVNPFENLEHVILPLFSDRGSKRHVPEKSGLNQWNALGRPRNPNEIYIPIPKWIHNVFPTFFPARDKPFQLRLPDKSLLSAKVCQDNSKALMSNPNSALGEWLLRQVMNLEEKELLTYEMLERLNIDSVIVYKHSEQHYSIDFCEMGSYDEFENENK
The experiment in a line: cell_activity.

Substance “GCNGC (double strand) [pCJ791 plasmid GCNGC sites, M.Bli1904II-methylated]” registered an activity (transformants per ug DNA) (methylated by M.Bli1904II at GCNGC (C5-cytosine type, position not stated), methylated plasmid not restricted in SJ1904, 7.2e3 in deletion strain MDT269) of 16000.
As for “GCNGC (double strand) [pCJ791 plasmid GCNGC sites, unmethylated]”, the activity (transformants per ug DNA) (restriction of unmethylated plasmid in SJ1904, 6.4e3 in Bli1904II deletion strain MDT269, site inferred from cognate methylase) was found to be 17.
